In this series the test system is Escherichia coli TOP10. Nature of the series: shrunken log2 fold change of peptide-encoding DNA abundance (4.5 h post-induction vs induction); higher = less antimicrobial activity (less host growth inhibition). The settings on record: time post-induction: 4.5 h; library: site-saturation at positions 5, 18, 19, 20.
As to RRIRNRPPRLPRPRPRPSAIPRP, the “shrunken log2 fold change” value was -0.354.

In the case of RRIRPRPPRLPRPRPRPSPNPRP, the “shrunken log2 fold change” value turned out to be 1.14.

Consider RRIRVRPPRLPRPRPRPQYTPRP, for which the “shrunken log2 fold change” value is -0.526.

For RRIRMRPPRLPRPRPRPHKHPRP, the “shrunken log2 fold change” value is -0.287.

Regarding RRIRHRPPRLPRPRPRPPSCPRP, the “shrunken log2 fold change” value was determined as 0.604.

Regarding RRIRIRPPRLPRPRPRPIKLPRP, the “shrunken log2 fold change” value is -0.289.

Take RRIRIRPPRLPRPRPRPEMSPRP: the “shrunken log2 fold change” value is -0.0264.

On to RRIRSRPPRLPRPRPRPNRLPRP, for which the “shrunken log2 fold change” value is -0.205.

Turning to RRIRWRPPRLPRPRPRPWQSPRP, the “shrunken log2 fold change” value was determined as 0.0143.

Turning to RRIRPRPPRLPRPRPRPWVEPRP, the “shrunken log2 fold change” value worked out at 0.17.

Regarding RRIRVRPPRLPRPRPRPQSKPRP, the “shrunken log2 fold change” value is -0.172.

Turning to RRIRIRPPRLPRPRPRPSLMPRP, the “shrunken log2 fold change” value was -0.246.

RRIRWRPPRLPRPRPRPTEIPRP: the “shrunken log2 fold change” value was -0.22.

Regarding RRIRMRPPRLPRPRPRPMPEPRP, the “shrunken log2 fold change” value was found to be 0.627.

Regarding RRIRSRPPRLPRPRPRPYSLPRP, the “shrunken log2 fold change” value was -0.35.

For RRIRLRPPRLPRPRPRPIGCPRP, the “shrunken log2 fold change” value was -0.0407.

Regarding RRIRFRPPRLPRPRPRPQSSPRP, the “shrunken log2 fold change” value came to 0.0748.

For RRIRYRPPRLPRPRPRPYPKPRP, the “shrunken log2 fold change” value was -0.201.

Take RRIRIRPPRLPRPRPRPLWEPRP: the “shrunken log2 fold change” value was 0.223.

Take RRIRHRPPRLPRPRPRPQKRPRP: the “shrunken log2 fold change” value was -0.225.

With RRIRMRPPRLPRPRPRPIFFPRP, the “shrunken log2 fold change” value was 0.276.

With RRIRCRPPRLPRPRPRPCWWPRP, the “shrunken log2 fold change” value worked out at 0.904.

With RRIRPRPPRLPRPRPRPPESPRP, the “shrunken log2 fold change” value was 0.841.

As to RRIRMRPPRLPRPRPRPARYPRP, the “shrunken log2 fold change” value worked out at 0.581.

Take RRIRPRPPRLPRPRPRPKIRPRP: the “shrunken log2 fold change” value is -0.137.

For RRIRFRPPRLPRPRPRPRRAPRP, the “shrunken log2 fold change” value amounted to 0.678.

Take RRIRERPPRLPRPRPRPVHGPRP: the “shrunken log2 fold change” value is -0.152.

Consider RRIRARPPRLPRPRPRPKVGPRP, for which the “shrunken log2 fold change” value turned out to be 0.284.

Regarding RRIRDRPPRLPRPRPRPAERPRP, the “shrunken log2 fold change” value was -0.0412.

RRIRYRPPRLPRPRPRPRWQPRP: the “shrunken log2 fold change” value worked out at 0.033.

With RRIRKRPPRLPRPRPRPGQIPRP, the “shrunken log2 fold change” value worked out at 0.00502.

Turning to RRIRERPPRLPRPRPRPPYHPRP, the “shrunken log2 fold change” value was -0.456.

Turning to RRIRMRPPRLPRPRPRPLSHPRP, the “shrunken log2 fold change” value stood at 0.177.

On to RRIRMRPPRLPRPRPRPPYFPRP, for which the “shrunken log2 fold change” value was found to be 0.104.

On to RRIRKRPPRLPRPRPRPHCPPRP, for which the “shrunken log2 fold change” value is -0.00424.

With RRIRRRPPRLPRPRPRPNEEPRP, the “shrunken log2 fold change” value was 0.0468.

With RRIRGRPPRLPRPRPRPFAAPRP, the “shrunken log2 fold change” value came to 1.82.

On to RRIRSRPPRLPRPRPRPPHQPRP, for which the “shrunken log2 fold change” value turned out to be 0.27.

With RRIRARPPRLPRPRPRPRQLPRP, the “shrunken log2 fold change” value worked out at 0.449.

For RRIRRRPPRLPRPRPRPWYTPRP, the “shrunken log2 fold change” value was -0.637.

For RRIRCRPPRLPRPRPRPSQPPRP, the “shrunken log2 fold change” value was 0.075.

For RRIRARPPRLPRPRPRPNQEPRP, the “shrunken log2 fold change” value is -0.000902.

For RRIRGRPPRLPRPRPRPFYVPRP, the “shrunken log2 fold change” value amounted to 0.0462.

For RRIRSRPPRLPRPRPRPEEFPRP, the “shrunken log2 fold change” value is -0.00122.

Take RRIRERPPRLPRPRPRPQVLPRP: the “shrunken log2 fold change” value is -0.0121.

With RRIRQRPPRLPRPRPRPQSGPRP, the “shrunken log2 fold change” value was -0.0474.

In the case of RRIRDRPPRLPRPRPRPAAFPRP, the “shrunken log2 fold change” value came out at 0.549.

For RRIRFRPPRLPRPRPRPTLNPRP, the “shrunken log2 fold change” value is -0.254.

Consider RRIRMRPPRLPRPRPRPFAHPRP, for which the “shrunken log2 fold change” value is -0.00592.

RRIRTRPPRLPRPRPRPATEPRP: the “shrunken log2 fold change” value was -0.0814.

As for RRIRTRPPRLPRPRPRPHSIPRP, the “shrunken log2 fold change” value was -0.0668.

RRIRDRPPRLPRPRPRPNFIPRP: the “shrunken log2 fold change” value is -0.0733.

On to RRIRRRPPRLPRPRPRPYSPPRP, for which the “shrunken log2 fold change” value was found to be 0.00204.

In the case of RRIRQRPPRLPRPRPRPPESPRP, the “shrunken log2 fold change” value is 0.528.

Turning to RRIRQRPPRLPRPRPRPNTSPRP, the “shrunken log2 fold change” value was -0.292.

RRIRKRPPRLPRPRPRPVFQPRP: the “shrunken log2 fold change” value stood at 0.447.

As for RRIRSRPPRLPRPRPRPMMKPRP, the “shrunken log2 fold change” value was 1.75.

With RRIRNRPPRLPRPRPRPFTNPRP, the “shrunken log2 fold change” value was 0.00408.

RRIRCRPPRLPRPRPRPFRNPRP: the “shrunken log2 fold change” value is -0.0491.

Consider RRIRRRPPRLPRPRPRPGKHPRP, for which the “shrunken log2 fold change” value was -0.0322.

For RRIRMRPPRLPRPRPRPKSEPRP, the “shrunken log2 fold change” value was 0.0246.

For the sequence RRIRSRPPRLPRPRPRPVFIPRP, the “shrunken log2 fold change” value was -0.598.

Consider RRIRRRPPRLPRPRPRPFEHPRP, for which the “shrunken log2 fold change” value was -0.0715.

As for RRIRCRPPRLPRPRPRPVYYPRP, the “shrunken log2 fold change” value is -0.363.

Consider RRIRLRPPRLPRPRPRPGDEPRP, for which the “shrunken log2 fold change” value was 0.114.

Turning to RRIRDRPPRLPRPRPRPFFEPRP, the “shrunken log2 fold change” value turned out to be 0.219.

Consider RRIRPRPPRLPRPRPRPTFIPRP, for which the “shrunken log2 fold change” value was -0.243.

Regarding RRIRIRPPRLPRPRPRPIFNPRP, the “shrunken log2 fold change” value was -0.589.

Regarding RRIRSRPPRLPRPRPRPHRNPRP, the “shrunken log2 fold change” value is -0.489.

Turning to RRIRARPPRLPRPRPRPITVPRP, the “shrunken log2 fold change” value is -0.201.

Regarding RRIRERPPRLPRPRPRPFDRPRP, the “shrunken log2 fold change” value is -0.0163.

For RRIRGRPPRLPRPRPRPSHIPRP, the “shrunken log2 fold change” value was 0.0558.

Regarding RRIRARPPRLPRPRPRPVNAPRP, the “shrunken log2 fold change” value was -0.0521.

Take RRIRNRPPRLPRPRPRPTRGPRP: the “shrunken log2 fold change” value is 0.725.

Take RRIRFRPPRLPRPRPRPHTVPRP: the “shrunken log2 fold change” value was 0.0365.

For RRIRSRPPRLPRPRPRPFERPRP, the “shrunken log2 fold change” value is -0.00192.

Turning to RRIRCRPPRLPRPRPRPFWAPRP, the “shrunken log2 fold change” value is -0.0403.

Consider RRIRIRPPRLPRPRPRPVDPPRP, for which the “shrunken log2 fold change” value was 0.106.

For the sequence RRIRPRPPRLPRPRPRPQEKPRP, the “shrunken log2 fold change” value was -0.0282.

For the sequence RRIRRRPPRLPRPRPRPKTMPRP, the “shrunken log2 fold change” value worked out at 0.348.

For the sequence RRIRTRPPRLPRPRPRPPMLPRP, the “shrunken log2 fold change” value is 0.0279.

Regarding RRIRHRPPRLPRPRPRPRHHPRP, the “shrunken log2 fold change” value was -0.0639.

Take RRIRFRPPRLPRPRPRPLFAPRP: the “shrunken log2 fold change” value turned out to be 0.15.

Regarding RRIRCRPPRLPRPRPRPFCNPRP, the “shrunken log2 fold change” value was -0.428.

With RRIRFRPPRLPRPRPRPYREPRP, the “shrunken log2 fold change” value is -0.468.

As for RRIRSRPPRLPRPRPRPKLAPRP, the “shrunken log2 fold change” value was 0.245.

With RRIRQRPPRLPRPRPRPQCSPRP, the “shrunken log2 fold change” value was -0.203.

As to RRIRARPPRLPRPRPRPIMGPRP, the “shrunken log2 fold change” value was 0.0143.

For the sequence RRIRVRPPRLPRPRPRPNFGPRP, the “shrunken log2 fold change” value was -0.098.

As for RRIRSRPPRLPRPRPRPEPPPRP, the “shrunken log2 fold change” value amounted to 0.662.

With RRIRERPPRLPRPRPRPAYDPRP, the “shrunken log2 fold change” value was -0.394.

Regarding RRIRNRPPRLPRPRPRPDVGPRP, the “shrunken log2 fold change” value was -0.251.

As to RRIRIRPPRLPRPRPRPEDEPRP, the “shrunken log2 fold change” value worked out at 0.0112.

RRIRMRPPRLPRPRPRPTCSPRP: the “shrunken log2 fold change” value was 0.134.

As to RRIRGRPPRLPRPRPRPFVAPRP, the “shrunken log2 fold change” value came out at 0.751.

In the case of RRIRSRPPRLPRPRPRPSNWPRP, the “shrunken log2 fold change” value is -0.237.

As to RRIRGRPPRLPRPRPRPWFGPRP, the “shrunken log2 fold change” value is -0.05.

As to RRIRKRPPRLPRPRPRPVWLPRP, the “shrunken log2 fold change” value was found to be 0.192.

On to RRIRLRPPRLPRPRPRPCNRPRP, for which the “shrunken log2 fold change” value came to 0.214.

For the sequence RRIRIRPPRLPRPRPRPEAFPRP, the “shrunken log2 fold change” value was determined as 0.0813.

Consider RRIRPRPPRLPRPRPRPAKMPRP, for which the “shrunken log2 fold change” value worked out at 0.0216.

In the case of RRIRWRPPRLPRPRPRPYWHPRP, the “shrunken log2 fold change” value is -0.377.

As to RRIRVRPPRLPRPRPRPSWIPRP, the “shrunken log2 fold change” value was -0.476.

Consider RRIRERPPRLPRPRPRPSDGPRP, for which the “shrunken log2 fold change” value was -0.166.

With RRIRKRPPRLPRPRPRPVNMPRP, the “shrunken log2 fold change” value is 0.113.

Consider RRIRKRPPRLPRPRPRPPRYPRP, for which the “shrunken log2 fold change” value amounted to 0.525.

Regarding RRIRIRPPRLPRPRPRPMVIPRP, the “shrunken log2 fold change” value was -0.154.

In the case of RRIRQRPPRLPRPRPRPPPNPRP, the “shrunken log2 fold change” value came out at 0.508.

Consider RRIRYRPPRLPRPRPRPADQPRP, for which the “shrunken log2 fold change” value is -0.0819.

Take RRIRHRPPRLPRPRPRPMKKPRP: the “shrunken log2 fold change” value was -0.0202.

In the case of RRIRCRPPRLPRPRPRPMHQPRP, the “shrunken log2 fold change” value was -0.0626.

For RRIRTRPPRLPRPRPRPGVNPRP, the “shrunken log2 fold change” value was -0.0412.

Regarding RRIRERPPRLPRPRPRPLWWPRP, the “shrunken log2 fold change” value amounted to 0.0601.

Take RRIRHRPPRLPRPRPRPTWMPRP: the “shrunken log2 fold change” value was found to be 3.02.

Consider RRIRDRPPRLPRPRPRPLWEPRP, for which the “shrunken log2 fold change” value was 0.0751.

With RRIRWRPPRLPRPRPRPWEYPRP, the “shrunken log2 fold change” value was -0.0716.

On to RRIRSRPPRLPRPRPRPIAWPRP, for which the “shrunken log2 fold change” value was -0.0861.

Take RRIRMRPPRLPRPRPRPGRKPRP: the “shrunken log2 fold change” value worked out at 1.32.

In the case of RRIRARPPRLPRPRPRPFEWPRP, the “shrunken log2 fold change” value is -0.0571.

With RRIRPRPPRLPRPRPRPHMAPRP, the “shrunken log2 fold change” value is -0.276.

Turning to RRIRFRPPRLPRPRPRPMFCPRP, the “shrunken log2 fold change” value was -0.111.

For RRIRCRPPRLPRPRPRPIVPPRP, the “shrunken log2 fold change” value is -0.298.

Turning to RRIRERPPRLPRPRPRPLCIPRP, the “shrunken log2 fold change” value is -0.895.

Turning to RRIRVRPPRLPRPRPRPTLFPRP, the “shrunken log2 fold change” value is -0.0123.

With RRIRFRPPRLPRPRPRPHICPRP, the “shrunken log2 fold change” value is -0.0238.

(Values after the supplement of paper PMC9112550, “Optimization of the antimicrobial peptide Bac7 by deep mutational scanning” (BMC Biology, 2022).)
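Note: peptides expressed intracellularly from a pBAD plasmid library in pooled LB shake-flask culture, induced with 0.3% L-arabinose, DNA abundance read by NGS, three biological replicates, DESeq2 with apeglm shrinkage.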
